The text below walks through data of US20230393144A1 (I MAB BIOPHARMA US, published 2023).

This assay addresses T1, anti-CD47 antibody TJC4.
T1 construct: Tested as whole antibody; It was detected with an anti-human IgG4 secondary antibody, so it is human IgG4; also called therapeutic anti-CD47 antibody
Put plainly: indirect ELISA / blocking IC50 of the purified hybridoma antibody against anti-CD47 TJC4. The source says: The binding of the anti-idiotypic antibodies generated in Examples 2 and 3 to anti-CD47 TJC4 antibody was characterized by indirect ELISA assay, and the IC₅₀ of the anti-idiotypic antibodies was used as a measure of their potential effectiveness in reducing interference by a therapeutic anti-CD47 antibody in a serological assay. Lower IC₅₀ values indicated stronger blocking ability. […] The IC₅₀ value for 9F9H11H8, and, therefore, the blocking ability of 9F9H11H8, was better than those of 37F8C4G12 and 34D8H11B5 (i.e., anti-idiotypic antibodies produced by other hybridoma clones).
Background: An ELISA detects its analyte on a solid surface through an enzyme-linked reagent.

T1 sequence (VH, as listed by the source, chain 1 of 2): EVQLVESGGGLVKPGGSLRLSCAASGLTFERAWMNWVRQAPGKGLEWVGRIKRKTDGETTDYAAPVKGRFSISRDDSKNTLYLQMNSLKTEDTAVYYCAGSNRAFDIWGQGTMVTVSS
T1 sequence (VL, as listed by the source, chain 2 of 2): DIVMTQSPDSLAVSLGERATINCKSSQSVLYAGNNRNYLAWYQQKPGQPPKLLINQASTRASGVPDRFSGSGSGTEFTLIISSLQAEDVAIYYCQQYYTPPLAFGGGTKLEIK

B1: anti-idiotypic antibody 9F9H11H8 (antibody, V domains shown)
VH: QIQLVQSGPELKKPGETVKISCKASGFTFTNYGMNWVRQAPGKGLKWMGWINTYTGQPTHADDFKGRFAFSLETSARTAFLEINSLQNEDTATYFCARGGMGVRLRYFDVWGAGTTVTVSS
VL: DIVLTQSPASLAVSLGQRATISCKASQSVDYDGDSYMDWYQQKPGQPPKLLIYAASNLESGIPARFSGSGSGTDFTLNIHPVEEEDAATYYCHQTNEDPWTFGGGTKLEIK
notes: also called 9F9H11F8
The IC50 is the concentration that gives 50% inhibition. A higher IC50 goes with weaker potency. Take B1: the midpoint of inhibition, the IC50, lay at 0.382 µg/mL.
